# From patent publication US20040006022A1 (Harvard, published 2004)
# Read-outs that look alike come from different tables or passages of the source.
# T1: HLA-DR1 on L fibroblasts transfected with HLA-DR1 (L57.23) (human)
# T1 chain 1: not shown
# T1 chain 2: not shown
# T2: HLA-DR4 on L fibroblasts transfected with HLA-DR4 (human)
# T2 chain 1: not shown
# T2 chain 2: not shown
# T3: recombinant water-soluble 'empty' HLA-DR1 (DRB1*0101) (human)
# T3 chain 1: not shown
# T3 chain 2: not shown
# T4: recombinant water-soluble 'empty' HLA-DR4 (DRB1*0401) (human)
# T4 chain 1: not shown
# T4 chain 2: not shown
# What was measured:
# [1] = target: T1, HLA-DR1 on L fibroblasts transfected …; experiment: cell-based or functional assay
# [2] = target: T2, HLA-DR4 on L fibroblasts transfected …; experiment: cell-based or functional assay
# [3] = target: T3, recombinant water-soluble 'empty' …
# [4] = target: T3, recombinant water-soluble 'empty' …; experiment: competitive binding ELISA on recombinant HLA-DR1; competitor biotinylated YEAK
# [5] = target: T4, recombinant water-soluble 'empty' …; experiment: competitive binding ELISA on recombinant HLA-DR4; competitor biotinylated YEAK
# [6] = target: T4, recombinant water-soluble 'empty' …
binder,measurement,setting,value
"APKYVKQNTLKLATA (modifications not checked) [HA 306-318 bracketed by alanines at N- and C-terminals, …]",inhibition of the response of 3.19 T cells (IL-2 secretion),[1],> 98%
same,inhibition of the response of 19.3 T cells (IL-2 secretion),[1],> 95%
same,inhibition of the DR4 3838 T cell clone (IL-2 secretion),[2],< 60%
same,inhibition of the DR4 D3 T cell clone (IL-2 secretion),[2],< 60%
same,affinity determined by competition,[3],13 µM
same,affinity determined by competition,[4],3.3 µM
same,affinity determined by competition,[5],8.2 µM
same,affinity determined by competition,[6],26 µM
